# According to the supplement of paper PMC5998384:
# Columns and labels:
# [1] = tested on: HeLa Kyoto; experiment: melting temperature (median over replicates), in situ; higher = more thermally stable
# [2] = tested on: HeLa Kyoto; experiment: thermal stability score vs G1/S (z-score of summed log2 fold changes over temperatures); higher = more thermally stable than in G1/S
# [3] = cell cycle stage: early G1 (4.5 h after nocodazole release)
# 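Wherever melting temperature (median over replicates), in situ is given: HeLa Kyoto cells synchronized by double thymidine or nocodazole block, proteins quantified by TMT10plex mass spectrometry, three independent biological replicates.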
# 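Wherever thermal stability score vs G1/S (z-score of summed log2 fold changes over temperatures) is given: synchronized HeLa Kyoto cells, proteins quantified by TMT10plex mass spectrometry, three biological replicates, mitosis taken 0.5 h after nocodazole release, G1/S directly after double thymidine block.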
Sequence,melting temperature ([1]; cell cycle stage: G1/S),melting temperature ([1]; cell cycle stage: mitosis),"thermal stability score [2, 3]",thermal stability score ([2]; cell cycle stage: mitosis)
MEVVEAAAAQLETLKFNGTDFGVGEGPAAPSPGSAPVPGTQPPLQSFEGSPDAGQTVEVKPAGEQPLQPVLNAVAAGTPAPQPQPPAESPACGDCVTSPGAAEPARAPDSLETSDSDSDSDSETDSDSSSSSSSSSSSSSSSSSSCISLPPVLSDGDDDLQIEKENKNFPLKTKDELLLNELPSVEELTIILPEDIELKPLGMVSSIIEQLVIIESMTNLPPVNEETVIFKSDRQAAGKIFEIFGPVAHPFYVLRFNSSDHIESKGIKIKETMYFAPSMKDFTQYIFTEKLKQDKGSDASWKNDQEPPPEALDFSDDEKEKEAKQRKKSQIQGRKKLKSEFNEPGEDFTEVHQNWNAHSSASEHAKGYRNREFTRGFSRARYPRSCHGRPPPQHFYNSEHMVSQETSGFPSQRQNNPIMPQYPFPLPVFDMHNFPLRPPPPPPPPPVNMGWATPNMAAHPLLNLPYSLPPPPPPPPLPPPPSSGDSNSHFGPYY [NAF1],52 °C,52.1 °C,0.0445,-1.83
MGLPALEFSDCCLDSPHFRETLKSHEAELDKTNKFIKELIKDGKSLISALKNLSSAKRKFADSLNEFKFQCIGDAETDDEMCIARSLQEFATVLRNLEDERIRMIENASEVLITPLEKFRKEQIGAAKEAKKKYDKETEKYCGILEKHLNLSSKKKESQLQEADSQVDLVRQHFYEVSLEYVFKVQEVQERKMFEFVEPLLAFLQGLFTFYHHGYELAKDFGDFKTQLTISIQNTRNRFEGTRSEVESLMKKMKENPLEHKTISPYTMEGYLYVQEKRHFGTSWVKHYCTYQRDSKQITMVPFDQKSGGKGGEDESVILKSCTRRKTDSIEKRFCFDVEAVDRPGVITMQALSEEDRRLWMEAMDGREPVYNSNKDSQSEGTAQLDSIGFSIIRKCIHAVETRGINEQGLYRIVGVNSRVQKLLSVLMDPKTASETETDICAEWEIKTITSALKTYLRMLPGPLMMYQFQRSFIKAAKLENQESRVSEIHSLVHRLPEKNRQMLQLLMNHLANVANNHKQNLMTVANLGVVFGPTLLRPQEETVAAIMDIKFQNIVIEILIENHEKIFNTVPDMPLTNAQLHLSRKKSSDSKPPSCSERPLTLFHTVQSTEKQEQRNSIINSSLESVSSNPNSILNSSSSLQPNMNSSDPDLAVVKPTRPNSLPPNPSPTSPLSPSWPMFSAPSSPMPTSSTSSDSSPVRSVAGFVWFSVAAVVLSLARSSLHAVFSLLVNFVPCHPNLHLLFDRPEEAVHEDSSTPFRKAKALYACKAEHDSELSFTAGTVFDNVHPSQEPGWLEGTLNGKTGLIPENYVEFL [ARHGAP26],,52 °C,-0.227,-0.147
MGRSRSRSPRRERRRSRSTSRERERRRRERSRSRERDRRRSRSRSPHRRRSRSPRRHRSTSPSPSRLKERRDEEKKETKETKSKERQITEEDLEGKTEEEIEMMKLMGFASFDSTKGKKVDGSVNAYAINVSQKRKYRQYMNRKGGFNRPLDFIA [SNRNP27],54 °C,53.3 °C,1.03,0.903
MGSQEVLGHAARLASSGLLLQVLFRLITFVLNAFILRFLSKEIVGVVNVRLTLLYSTTLFLAREAFRRACLSGGTQRDWSQTLNLLWLTVPLGVFWSLFLGWIWLQLLEVPDPNVVPHYATGVVLFGLSAVVELLGEPFWVLAQAHMFVKLKVIAESLSVILKSVLTAFLVLWLPHWGLYIFSLAQLFYTTVLVLCYVIYFTKLLGSPESTKLQTLPVSRITDLLPNITRNGAFINWKEAKLTWSFFKQSFLKQILTEGERYVMTFLNVLNFGDQGVYDIVNNLGSLVARLIFQPIEESFYIFFAKVLERGKDATLQKQEDVAVAAAVLESLLKLALLAGLTITVFGFAYSQLALDIYGGTMLSSGSGPVLLRSYCLYVLLLAINGVTECFTFAAMSKEEVDRYNFVMLALSSSFLVLSYLLTRWCGSVGFILANCFNMGIRITQSLCFIHRYYRRSPHRPLAGLHLSPVLLGTFALSGGVTAVSEVFLCCEQGWPARLAHIAVGAFCLGATLGTAFLTETKLIHFLRTQLGVPRRTDKMT [RFT1],57.1 °C,56.9 °C,-1.46,-1.12
MGVNAVHWFRKGLRLHDNPALKECIQGADTIRCVYILDPWFAGSSNVGINRWRFLLQCLEDLDANLRKLNSRLFVIRGQPADVFPRLFKEWNITKLSIEYDSEPFGKERDAAIKKLATEAGVEVIVRISHTLYDLDKIIELNGGQPPLTYKRFQTLISKMEPLEIPVETITSEVIEKCTTPLSDDHDEKYGVPSLEELGFDTDGLSSAVWPGGETEALTRLERHLERKAWVANFERPRMNANSLLASPTGLSPYLRFGCLSCRLFYFKLTDLYKKVKKNSSPPLSLYGQLLWREFFYTAATNNPRFDKMEGNPICVQIPWDKNPEALAKWAEGRTGFPWIDAIMTQLRQEGWIHHLARHAVACFLTRGDLWISWEEGMKVFEELLLDADWSINAGSWMWLSCSSFFQQFFHCYCPVGFGRRTDPNGDYIRRYLPVLRGFPAKYIYDPWNAPEGIQKVAKCLIGVNYPKPMVNHAEASRLNIERMKQIYQQLSRYRGLGLLASVPSNPNGNGGFMGYSAENIPGCSSSGSCSQGSGILHYAHGDSQQTHLLKQGRSSMGTGLSGGKRPSQEEDTQSIGPKVQRQSTN [CRY1],,52 °C,0.298,-0.281
MIKAILIFNNHGKPRLSKFYQPYSEDTQQQIIRETFHLVSKRDENVCNFLEGGLLIGGSDNKLIYRHYATLYFVFCVDSSESELGILDLIQVFVETLDKCFENVCELDLIFHVDKVHNILAEMVMGGMVLETNMNEIVTQIDAQNKLEKSEAGLAGAPARAVSAVKNMNLPEIPRNINIGDISIKVPNLPSFK [AP3S1],50.8 °C,51.2 °C,-0.187,-0.378
MLKPALEPRGGFSFENCQRNASLERVLPGLKVPHARKTGTTIAGLVFQDGVILGADTRATNDSVVADKSCEKIHFIAPKIYCCGAGVAADAEMTTRMVASKMELHALSTGREPRVATVTRILRQTLFRYQGHVGASLIVGGVDLTGPQLYGVHPHGSYSRLPFTALGSGQDAALAVLEDRFQPNMTLEAAQGLLVEAVTAGILGDLGSGGNVDACVITKTGAKLLRTLSSPTEPVKRSGRYHFVPGTTAVLTQTVKPLTLELVEETVQAMEVE [PSMB10],53.3 °C,52.6 °C,0.227,0.56
